Results from patent US12527862B2, “Bactericidal/permeability increasing protein for use in a method of immunization, preferably as an adjuvant in a method of vaccination” (UNIVERSITÄT REGENSBURG, priority 2018, dated 2026).

Key:
BMDCs = experiment: Quantitative real-time PCR gene expression in BMDCs; assay type: cell-based, C57BL/6J mice; conditions: BMDCs stimulated with BPI; rtPCR normalized to HPRT, also microarray (FIGS. 2B and C)
Description: Gene expression analyses using rtPCR were performed 30 min, 1 h, 2 h, 4 h, 8 h, 12 h, 24 h and 48 h after the stimulation.
After stimulation, cells were lysed and RNA was isolated using RNeasyR Mini Kit (#74106, Qiagen). Remaining DNA in the sample was digested using TURBO DNA-free™ Kit (#AM1907, ThermoFisher Scientific). Finally, the RNA concentration was measured with a NanoDrop 1000 (Thermo Scientific). The isolated RNA was transcribed into complementary DNA (cDNA) using the iScript™ª Advanced cDNA Synthesis Kit (#1725038, Bio-Rad).
To analyze altered gene transcription, in particular of genes CXCL10, HPRT, IL-2, IL-6, and IL-12p40, in response to different stimulatory reagents, quantitative real-time PCR (qRT-PCR) was performed using SYBR-Green Master Mix (LightCycler® 480 SYBR Green I Master, #4707516001, Roche). Gene-specific primers synthesized by Thermo Fisher Scientific, Microsynth, Biomers, and Metabion were used. PCR reaction was performed using the HT 7900 Real-Time PCR system (Applied Biosystems). SDS software version 2.4 (Applied Biosystems) was used to analyze the gene expression, which was normalized to the housekeeping gene HPRT. 2^-ΔΔCT method was used to analyze the data.

[1] = test system: human peripheral blood mononuclear cells; experiment: Stimulation of human peripheral blood mononuclear cells, TNFα ELISA; assay type: cell-based; conditions: BPI 500 nM, 18 h
Description: After informed consent, blood was drawn from healthy male volunteers using heparinized blood collection tubes and PBMCs were separated using leucosep tubes containing FICOLL® PAQUE PLUS (Oxford Immunotec, Abingdon, Great Britian) at 1,000×g for 10 min. The pellet was resuspended in AIM VR Medium (Thermo Fisher Scientific Inc., Waltham, MA, USA), counted, and cultivated in 96-well plates for 4 h (1×10^5/100 μl). Then cells were stimulated with (R)-Pam3CSK4 (bLP, 1 nM) or LTA S. pneumoniae Δlgt (a lipoprotein deficient strain, LTA SPΔlgt, 1 μM, n=4) in the presence or absence of BPI (500 nM). The supernatants were collected after 18 h for determination of cytokine concentration by ELISA according to the manufacturer's instructions (OPTEIA™ Human TNFα ELISA Set, BD Biosciences, Heidelberg, Germany).

CD3+CD8+ T cells = experiment: Intracellular IFNγ staining of CD8+ T cells after supernatant stimulation; assay type: cell-based, C57BL/6J mice; conditions: SN BPI vs SN NT, 24h, n=4 (FIG. 13D)
Description: Naive CD4+CD25-CD44-CD62L+ T cells were isolated from peripheral lymph nodes and spleen of C57BL/6J mice and purified by MACS and FACS. Naïve CD4+ T cells were cultured in the presence of aCD3 and aCD28 antibodies and dendritic cell-derived supernatant after stimulation with BPI (SN BPI, BPI 200 nM) or after stimulation with ODN 1826 (SN CpG, ODN 1826 20 nM) or after stimulation with BPI and ODN 1826 (SN BPI+CpG, BPI 200 nM, ODN 1826 20 nM) or supernatant without addition of BPI or ODN 1826 (SN NT). On day five, cytokine levels were measured by Luminex. • A. Th1 differentiation as shown by detection of IFNγ (n=3). • B. Th17 differentiation as shown by detection of IL-17 (n=3). • C. […] Lymph node cells were stimulated with aCD3 and aCD28 antibodies and SN BPI or SN NT and incubated for 6h before adding a protein transport inhibitor cocktail and incubating for additional 16h. Cells were fixed and permeabilized and stained for CD3, CD4, CD8, and IFNγ. Lines are connecting the amount of IFNγ-producing CD3+CD8+ T cells after treatment with SN BPI or SN NT for 24h. • Bars represent the means±standard error of the mean. Statistics for comparison were performed with the paired Student's t-test (A to C) or the ratio paired Student's t-test (D).
All described work steps were conducted on ice. […]

B1: bactericidal/permeability-increasing protein (protein)
chain: RIKIPDYSDSFKIKHLGKGHYSFYSMDIREFQLPSSQISMVPNVGLKFSISNANIKISGKWKAQKRFLKMSGNFDLSIEGMSISADLKLGSNPTSGKPTITCSSCSSHINSVHVHISKSKVGWLIQLFHKKIESALRNKMNSQVCEKVTNSVSSELQPYFQTLPVMTKIDSVAGINYGLVAPPATTAETLDVQMKGEFYSENHHNPPPFAPPVMEFPAAHDRMVYLGLSDYFFNTAGLVYQEAGVLKMTLRDDMIPKESKFRLTTKFFGTFLPEVAKKFPNMKIQIHVSASTPPHLSVQPTGLTFYPAVDVQAFAVLPNSSLASLFLIGMHTTGSMEVSAESNRLVGELKLDRLLLELKHSNIGPFPVELLQDIMNYIVPILVLPRVNEKLQKGFPLPTPARVQLYNVVLQPHQNFLLFGADVVYK
modifications: labeled with NT647 (Monolith NT Protein Labeling Kit RED-NHS) in the MST experiments
notes: recombinant human BPI, aa32-487 of huBPI with N-terminal HA signal peptide, expressed in HEK293T cells
- CXCL10, IL-2, IL-6, and IL-12p40 mRNA expression (BMDCs): increase of CXCL10, IL-2, IL-6, and IL-12p40 mRNA expression
- effect of BPI alone on PBMCs [1]: minor effect
- activation of CD8+ T cells (IFNγ-producing CD3+CD8+ T cells) (CD3+CD8+ T cells): activation of CD8+ T cells
